Among the data in US20250051266A1, “Novel GLV-Phenolamide: Biosynthesis and Function in Protecting Plants from Herbivore Attack” (Max-Planck-Gesellschaft zur Förderung der Wissenschaften …, priority 2021, published 2025) are Km and Vmax values, retold here.

Assay type in all cases: biochemical, Nicotiana attenuata
What all share (settings): other substrate fixed ((Z)-3-hexenal 1 mM or caffeoylputrescine 80 μM)

Substrate in data set [1]: CC/C=C\CC=O
The data set is described as follows: Steady-state Michaelis-Menten kinetics of NaPPO1 (with or without NaBBL2).
Source text: (§1) FIG. 49 Michaelis-Menten kinetics of PPO1 and BBL2 with different concentrations of caffeoylputrescine and (Z)-3-hexenal. Steady-state kinetics of caffeoylputrescine or (Z)-3-hexenal conversion to CPH catalyzed by PPO1 purified from E. coli B121 expressing PPO1. Error bars represent the standard error of the means (SEM) from three independent measurements of reaction velocity. The kinetic constants, apparent Km and Vmax (Table 2), and their standard errors were inferred using nonlinear Michaelis-Menten curve-fitting in GraphPad Prism (v. 9.0d). Substrate concentration for (Z)-3-hexenal was 1 mM.
as §1, with “FIG. 51” for “FIG. 49”, “Vmax (see Table” for “Vmax (Table”, “for caffeoylputrescine” for “for (Z)-3-hexenal”, “was 80 μM.” for “was 1 mM.”
(§2) Steady-state kinetics of NaPPO1, NaPPo2 and NaBBL2 enzymes: For steady-state kinetic analysis, the ability to oxidize N-caffeoylputrescine was tested in 84 mM acetate buffer (pH 4.8) at 22° C. water bath, containing 1 mM (Z)-3-hexnal, 1 mM FAD, 32 μg NaPPO1/NaPPO2, 30 μg/90 μg NaBBL2 (total volume 100 μL); assays lacking NaBBL2 enzymes served as negative controls.
(§3) The following eight N-caffeoylputrescine final concentrations were each tested at three independent experiments: 10, 20, 40, 60, 80, 120, 140, and 160 μM. Likewise, the ability to catalyze (Z)-3-hexnal was tested in 84 mM acetate buffer (pH 4.8) at 22° C., containing 80 μM N-caffeoylputrescine, 1 mM FAD, 32 μg NaPPO1/NaPPO2, 30 μg/90 μg NaBBL2 (total volume 100 μL); again, assays lacking NaBBL2 enzymes served as negative controls. The following eight (Z)-3-hexnal final concentrations were each tested in three independent experiments: 500, 600, 700, 800, 1000, 1200, 1600, and 2000 μM. The reactions were initiated by the addition of the corresponding recombinant enzymes and the components were mixed by briefly vortexing, and immediately returned to the 22° C. water bath for incubation. After 20 minutes, all the reactions were briefly vortexed, and 100 μL aliquot of each reaction was transferred to a cold Eppendorf tube (−20° C.) containing 100 μL of MeOH (with 600 ng/mL testosterone as an internal standard) to terminate enzyme activity. Samples were centrifuged at 16,000g, 4° C. for 30 min, and 150 μL supernatants were transferred into to 2 mL glass vials for LC/MS (1 μL injection volume) analysis under the same method as described previously. Standard curves for caffeoylputrescine using authentic standards (with 600 ng/mL testosterone as an internal standard) (FIG. 34) were used to calculate the concentrations of substrate and product in each assay sample. The kinetic constants for caffeoylputrescine and (Z)-3-hexnal, apparent Km and Vmax, were inferred using a nonlinear regression in GraphPad Prism 9 (FIG. 34).

Substrate in data set [2]: NCCCCNC(=O)/C=C/c1ccc(O)c(O)c1
The data set is described as above.
Source text: as §1
as §1, with “FIG. 51” for “FIG. 49”, “Vmax (see Table” for “Vmax (Table”, “for caffeoylputrescine” for “for (Z)-3-hexenal”, “was 80 μM.” for “was 1 mM.”
as §2, §3

Substrate in data set [3]: CC/C=C\CC=O
In words: Steady-state Michaelis-Menten kinetics of NaPPO2 (with or without NaBBL2).
Source text: as §1, with “50” for “49”, “PPO2” for “PPO1”, “PPO2.” for “PPO1.”
as §1, with “52” for “49”, “PPO2” for “PPO1”, “PPO2.” for “PPO1.”, “mM.Substrate concentration for caffeoylputrescine was 80 μM.” for “mM.”
as §2, §3

Substrate in data set [4]: NCCCCNC(=O)/C=C/c1ccc(O)c(O)c1
The description is as above.
Source text: as §1, with “50” for “49”, “PPO2” for “PPO1”, “PPO2.” for “PPO1.”
as §1, with “52” for “49”, “PPO2” for “PPO1”, “PPO2.” for “PPO1.”, “mM.Substrate concentration for caffeoylputrescine was 80 μM.” for “mM.”
as §2, §3

The mark [5] stands for this setting: other: PPO1 + BBL2 (30 μg), pH 4.8, 22.0 °C.
[6] abbreviates: other: PPO1 + BBL2 (90 μg), pH 4.8, 22.0 °C.
Where [7] appears, read: other: PPO1 alone, pH 4.8, 22 °C.
The mark [8] stands for this setting: other: PPO2 + BBL2 (30 μg), pH 4.8, 22.0 °C.
Where [9] appears, read: other: PPO2 + BBL2 (90 μg), pH 4.8, 22.0 °C.
[10] abbreviates: other: PPO2 alone, pH 4.8, 22 °C.

B1: NaPPO1 (Nicotiana attenuata) (protein)
chain: MASSSTLPLCTTKTPFSSSTNSFFFAKPSHLFLNGKRNQSFKVSCTGEHDGNQLDAIKEGAVERRNVLLGLGGLYGAANLAPLASAAPVPPPDLKSCGPATITDGPTVSYSCCPPTPDDMDSVPYYKIPRMSKLRKRPAAQDVSEEYIAKYQLATSKMRELDKDPFDPLGFKQQANIHCAYCNDAYTMGDKKLQVHQSWLFFPFHRWYLYFYERILGSLIDDPTFALPYWNWDHPSGMRLPAMFDVEGSSLYDARRNPNVRNGTIIDLGFFGNEVKTNEIQMITNNLILMYRQMITNAPSPLLFFGEPYRFGSKPNPGQGTIENIPHTPVHIWTGTVRDTDLGNGVKSYGEDMGNFYSAGLDPVFYSHHANVDRMWNEWKALGGKRRDLTDKDWLNSEFFFYDENRDPWRVKVRDCLDSKKMGYDYEPKATPWRNFKPGKKTTPGKVNLRSVKPASKVFPLSNLDRAICFSIERPATSRSQQEKDEFEEVLTFKNLKYDDSRYIKFDVFVNADKTVNADDIDKTEYAGSYTSLPHVHGPNNATHVVEVEEFKLAITELLEDCGLEDDDIIAVTVVPKTGGEVVSIDCVLIELKAFY
In general, Km refers to the substrate concentration at which the rate is half of its maximum. Usually Vmax stands for the rate approached at saturating substrate. On to B1, for which the Michaelis constant (Km) in data set [1] (setting [5]) stood at 870.67 ± 381.05 µM; in data set [1] (setting [6]) it was 870.67 ± 381.05 µM; in data set [1] (setting [7]), 853.22 ± 257.87 µM; in data set [2] (setting [5]) it was 86.09 ± 15.34 µM; in data set [2] (setting [6]) it was 95.52 ± 28.20 µM; in data set [2] (setting [7]), 67.30 ± 10.59 µM. The Vmax was 0.10 ± 0.02 µM/mg/min in data set [1] (setting [5]); 0.09 ± 0.02 µM/mg/min in data set [1] (setting [6]); 0.09 ± 0.01 µM/mg/min in data set [1] (setting [7]); 0.25 ± 0.02 µM/mg/min in data set [2] (setting [5]); 0.26 ± 0.04 µM/mg/min in data set [2] (setting [6]); 0.21 ± 0.01 µM/mg/min in data set [2] (setting [7]).

B2: NaPPO2 (Nicotiana attenuata) (protein)
chain: MASSSSSTLPLCASKTPSSSFTNTNSSFFAKPSQLFLHGKRNQNFKFSCNANSGEHDKNLDAVDRRNVLLGLGGLYGAANLAPLATAAPIPPPDLKSCSKAHINDQEEVSYSCCPPIPSDMDSVPYYKFPSMPKLRIRPAAHAADEEYIAKYQLATSRMRELDKDPFDPLGFKQQANIHCAYCNGAYKIGGKELQVHFSWLFFPFHRWYLYFYERILGSLINDPTFGLPYWNWDHPKGMRIPPMFDREGSSLYDARRNQSHRNGTIIDLGYFGTEVQTTQLQQMTNNLTIMYRQMITNAPCPLLFFGQPYPLGTDPSPGMGTIENIPHTPVHIWVGSGPNENNVQHGEDMGNFYSAGLDPLFYSHHANVDRMWSEWKALGGKRRDLTHKDWLNSEFFFYDENRNPFRVKVRDCLDSKKMGFDYAPMPTPWRNFKPIRKSNAGKVNLSSVPPASRVFPLSKLDRAISFSIDRPSSSRTQQEKNEQEEMLTFNNIKYDDSKYIRFDVFLNVDKTVNADELDKAEYAGSYTSLPHVHGDNASHVTSVTFQLAITELLEDIGLEDEDTIAVTVVPKTGGEEISIEGVEIKLVDC
On to B2, for which the Km in data set [3] (setting [8]) was determined as 662.39 ± 360.69 µM; in data set [3] (setting [9]) it was 643.31 ± 217.25 µM; in data set [3] (setting [10]) it was 673.35 ± 393.28 µM; in data set [4] (setting [8]) it was 206.18 ± 49.95 µM; in data set [4] (setting [9]), 207.19 ± 78.07 µM; in data set [4] (setting [10]), 204.35 ± 51.37 µM. The Vmax in data set [3] (setting [8]) stood at 0.021 ± 0.004 µM/mg/min; in data set [3] (setting [9]), 0.024 ± 0.003 µM/mg/min; in data set [3] (setting [10]) it was 0.023 ± 0.005 µM/mg/min; in data set [4] (setting [8]), 0.63 ± 0.09 µM/mg/min; in data set [4] (setting [9]) it was 0.67 ± 0.17 µM/mg/min; in data set [4] (setting [10]) it was 0.64 ± 0.10 µM/mg/min.
